Test results taken from paper PMC6484134 (2019).

Tests used:
[1] = target: Cul3N (human Cul3 N-terminal domain, residues 1–388, I342R L346D) (human, UniProt Q13618 1-388, I342R | L346D); experiment: ITC
[2] = target: Cul3NΔ22 (human Cul3 N-terminal domain, residues 23–388, I342R L346D) (human, UniProt Q13618 23-388, I342R | L346D); experiment: ITC
Chain of Cul3NΔ22 (human Cul3 N-terminal domain, residues 23–388, I342R L346D) (Q13618 23-388 I342R/L346D): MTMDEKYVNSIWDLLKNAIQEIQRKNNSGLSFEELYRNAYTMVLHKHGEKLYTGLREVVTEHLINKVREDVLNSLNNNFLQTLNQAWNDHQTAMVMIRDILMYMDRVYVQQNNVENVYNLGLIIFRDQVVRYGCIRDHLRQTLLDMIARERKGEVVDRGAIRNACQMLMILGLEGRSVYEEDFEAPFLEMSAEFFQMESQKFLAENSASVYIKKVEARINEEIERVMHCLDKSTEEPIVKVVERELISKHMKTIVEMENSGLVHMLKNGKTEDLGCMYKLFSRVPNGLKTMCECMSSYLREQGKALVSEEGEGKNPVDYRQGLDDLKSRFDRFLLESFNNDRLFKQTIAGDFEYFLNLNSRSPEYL

Chain of Cul3N (human Cul3 N-terminal domain, residues 1–388, I342R L346D) (Q13618 1-388 I342R/L346D): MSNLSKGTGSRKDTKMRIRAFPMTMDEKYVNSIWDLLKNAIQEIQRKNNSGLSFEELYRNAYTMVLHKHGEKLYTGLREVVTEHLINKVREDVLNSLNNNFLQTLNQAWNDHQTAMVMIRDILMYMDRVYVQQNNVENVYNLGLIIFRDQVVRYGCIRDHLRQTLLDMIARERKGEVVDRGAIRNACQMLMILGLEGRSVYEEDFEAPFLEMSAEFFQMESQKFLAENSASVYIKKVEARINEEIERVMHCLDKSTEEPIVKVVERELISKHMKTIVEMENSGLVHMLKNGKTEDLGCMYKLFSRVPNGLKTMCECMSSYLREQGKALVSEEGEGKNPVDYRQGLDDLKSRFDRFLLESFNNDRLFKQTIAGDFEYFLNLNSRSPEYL

Kd [1]: 22.9 nM
Kd [2]: 36.2 nM
B1: KLHL3-BB (human KLHL3 BTB-BACK domain, residues 24–276) (domain or fragment)
chain: RTITVNPAHMGKAFKVMNELRSKQLLCDVMIVAEDVEIEAHRVVLAACSPYFCAMFTGDMSESKAKKIEIKDVDGQTLSKLIDYIYTAEIEVTEENVQVLLPAASLLQLMDVRQNCCDFLQSQLHPTNCLGIRAFADVHTCTDLLQQANAYAEQHFPEVMLGEEFLSLSLDQVCSLISSDKLTVSSEEKVFEAVISWINYEKETRLEHMAKLMEHVRLPLLPRDYLVQTVEEEALIKNNNTCKDFLIEAMKYH
